Consider one molecule from US6479459 (IMMUNEX, dated 2002).

This test concerns the target T1, soluble elk/Fc fusion protein (rat elk extracellular domain fused to human IgG1 Fc) (rat; human, UniProt P09759 18-540; P01857 99-330 = IgG part, limits assumed).
T1 construct: extracellular domain;domain: Fc region; Expressed transiently in mammalian host cells and purified on protein A sepharose
Description: Scatchard analysis; elk/Fc at various concentrations on CV1-EBNA-1 cells expressing LERK-5, detected with 125I-mouse anti-human IgG. Here is the method:
CV1-EBNA-1 cells in 10 cm² dishes were transfected with the recombinant expression vector containing LERK-5 DNA. The CV-1/EBNA-1 cell line (ATCC CRL 10478) constitutively expresses EBV nuclear antigen-1 driven from the CMV immediate-early enhancer/promoter. CV1-EBNA-1 was derived from the African Green Monkey kidney cell line CV-1 (ATCC CCL 70), as described by McMahan et al. (*EMBO J*. 10:2821, 1991).
The transfected cells were cultured for 24 hours, and the cells in each dish then were split into a 24-well plate. After culturing an additional 48 hours, a binding assay was conducted by the following procedure. The transfected cells (about 4×10^4 cells/well) were washed with BM-NFDM, which is binding medium (RPMI 1640 containing 25 mg/ml bovine serum albumin, 2 mg/ml sodium azide, 20 mM Hepes pH 7.2) to which 50 mg/ml nonfat dry milk has been added. The cells then were incubated for 1 hour at 37° C. with various concentrations of the elk/Fc fusion protein prepared in Example 2 or the hek/Fc fusion protein prepared in Example 3. Cells then were washed and incubated with a constant saturating concentration of a ^125I-mouse anti-human IgG in binding medium, with gentle agitation for 1 hour at 37° C. After extensive washing, cells were released via trypsinization. […]

T1 sequence (P09759 other isoform, or with tags, fused parts or gaps limits assumed): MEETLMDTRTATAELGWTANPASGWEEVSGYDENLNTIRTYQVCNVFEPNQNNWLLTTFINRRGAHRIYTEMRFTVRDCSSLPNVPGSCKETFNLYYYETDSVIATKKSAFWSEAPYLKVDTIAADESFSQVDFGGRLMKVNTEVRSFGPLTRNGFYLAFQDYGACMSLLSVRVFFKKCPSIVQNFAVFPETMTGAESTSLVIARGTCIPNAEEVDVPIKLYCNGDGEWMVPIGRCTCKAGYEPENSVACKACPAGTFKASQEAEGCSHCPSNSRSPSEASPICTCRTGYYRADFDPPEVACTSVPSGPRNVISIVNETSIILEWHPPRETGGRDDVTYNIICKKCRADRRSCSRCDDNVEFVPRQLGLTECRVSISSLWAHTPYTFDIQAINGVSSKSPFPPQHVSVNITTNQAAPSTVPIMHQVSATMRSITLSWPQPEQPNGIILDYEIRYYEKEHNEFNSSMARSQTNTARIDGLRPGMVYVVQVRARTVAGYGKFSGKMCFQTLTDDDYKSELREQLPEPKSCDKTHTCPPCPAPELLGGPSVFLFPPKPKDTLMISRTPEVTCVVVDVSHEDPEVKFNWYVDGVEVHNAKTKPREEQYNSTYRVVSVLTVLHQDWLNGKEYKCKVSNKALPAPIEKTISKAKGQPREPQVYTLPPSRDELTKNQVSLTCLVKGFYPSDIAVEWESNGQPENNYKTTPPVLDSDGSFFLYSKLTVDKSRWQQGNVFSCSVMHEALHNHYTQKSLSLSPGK

B1: human LERK-5 (recombinant, full length, expressed on the surface of transfected CV1-EBNA-1 cells) (ligand)
chain: KSIVLEPIYWNSSNSKFLPGQGLVLYPQIGDKLDIICPKVDSKTVGQYEYYKVYMVDKDQADRCTIKKENTPLLNCAKPDQDIKFTIKFQEFSPNLWGLEFQKNKDYYIISTSNGSLEGLDNQEGGVCQTRAMKILMKVGQDASSAGSTRNKDPTRRPELEAGTNGRSSTTSPFVKPNPGSSTDGNSAGHSGNNILGSEVALFAGIASGCIIFIVIIITLVVLLLKYRRRHRKHSPQHTTTLSLSTLATPKRSGNNNGSEPSDIIIPLRTADSVFCPHYEKVSGDYGHPVYIVQEMPPQSPANIYYKV
notes: The whole coding region of clone λ6 was expressed from pDC410 in CV1-EBNA-1 cells; also called clone λ6 protein
B1 gave a Ka of 1.05e+09 M⁻¹.
